Data published in patent publication US6537804B1, “BCR-ABL directed compositions and uses for inhibiting Philadelphia chromesome stimulated cell growth” (Board of Regents, The University of Texas Systems, priority 1995, dated 2003).
Non-standard residues stand in square brackets, D forms with d. No end group written: not given here. pS = N[C@@H](COP(=O)(O)O)C(=O)O

Experiments:
P185 BCR-ABL = biological target: T1, P185 BCR-ABL (Homo sapiens, UniProt P00519+P11274); assay: Bcr-Abl autokinase (immune complex kinase) assay; format: biochemical; details: for Inhibition of Bcr-Abl tyrosine kinase activity (autophosphorylation): 50 μg of peptide added to P185 BCR-ABL immune complexes from SUP B15 cells
T1 construct: endogenous in cells; host or cells: SUP-B15 (Ph1-positive ALL cell line)
Procedure: FIG. 21. Phosphoserine Bcr peptide pS354 S17K (SEQ ID NO:22) inhibits the Bcr-Abl tyrosine kinase activity. The SUP B15 cell line derived from a patient with Bcr-Abl-positive acute lymphocytic leukemia (ALL) were grown in culture; cells were lysed and the Bcr-Abl oncoprotein immunoprecipitated with a monoclonal antibody p6D (anti-Abl 51-64). The immune complexes were mixed with either no peptide or 50 μg of peptide prior to addition of the kinase activating buffer containing [γ-^32P]ATP. After the assay was completed, the proteins were fractionated by SDS gel electrophoresis. Radioactive proteins were detected by phosphoimage analysis. Lane 1, no peptide; lane 2, 50 μg of pS354 S17K; lane 3, 50 μg of unphosphorylated S17K.
FIG. 23A, FIG. 23B and FIG. 23C. A Bcr fragment expressed in COS-1 cells inhibits the Bcr-Abl tyrosine kinase in vitro. In these studies, the Bcr fragment was expressed in COS-1 cells, then isolated by immunoprecipitation with anti-Bcr 181-194 antibody. This immune complex was isolated by binding to protein A Sepharose beads; these immune complexes were added to protein A Sepharose beads containing P185 BCR-ABL harvested from SUP B15 leukemic cells with anti-Abl 51-64. The autokinase reaction was performed to measure the tyrosine kinase activity of Bcr-Abl.
Immunokinase Assay: The immunokinase assays were performed as described by Campbell et al. (1990) with modifications. The cells are lysed by homogenizing the cell pellet in two different lysis buffers at 0° C. in a tight fitting Wheaton homogenizer (either 0.1% Triton-X100, 100 mM NaCl, 5 mM EDTA, 10 mM sodium phosphate, pH 7.2 or 1% Triton-X100, 100 mM NaCl, 0.5% sodium deoxycholate, 0.1% SDS, 5 mM EDTA, 10 mM sodium phosphate pH 7.2). Both buffers were supplemented with 30 mM sodium pyrophosphate, 100 KIU aprotinin, 1 mM benzamidine, 1 mM phenylmethylsulfonyl fluoride and 0.2 mM sodium vanadate.
Immunoprecipitation reactions were carried out utilizing 20-40 μl of the respective anti-peptide rabbit sera or 5 μl of monoclonal antibody at 0° C. for 1 hour. Blocked immunoprecipitations refer to those immunoprecipitation reactions performed with antisera that have been preincubated with excess cognate peptide to specifically block the anti-peptide antibodies.
The resulting antigen-antibody immunoprecipitates were collected with 30 μl of 50% protein A-Sepharose (Pharmacia, Uppsala, Sweden), pelleted and washed with RIPA buffer (0.1% Triton X-100, 0.05% SDS, 0.5% sodium deoxycholate, 100 mM NaCl in 10 mM phosphate buffer, pH 7.2), wash buffer (0.1% Triton X-100, 100 mM NaCl, in 10 mM phosphate buffer, pH 7.2) and finally with 50 mM Tris buffer, pH 7.2. […]

casein = assay: Immune complex kinase assay of mutant P160 BCR, transphosphorylation of casein; format: biochemical; details: mutant P160 BCR expressed in COS-1 cells
Text: Mutant forms of P160^BCR were expressed in COS-1 cells and tested for serine/threonine kinase activities in immune complex kinase assays.
Using the intensities of the P160^BCR bands as an indication of the amount of active P160^BCR in the immune complex and the intensities of the casein bands as a measure of transphosphorylation activity, the transphosphorylation activity of the Y360F Bcr mutant was reduced about sevenfold, compared with that of the wild type. Similarly, the Y360F Bcr mutant was also defective in transphosphorylating another exogenous substrate, histone H1.
The amounts of Bcr within these immune complexes were quantitated in two ways. In a first method, the amounts of Bcr mutants would be underestimated by about 10%, compared with that of the wild type. On the basis of these measurements, the specific activity of transkinase activity (casein intensity/P160^BCR intensity) of the Y360F Bcr mutant (0.03) was reduced more than 20-fold in this study, compared with that of the wild type.
The second method of estimating the amounts of P160^BCR in immune complexes involved the Western blotting of these immune complexes with an anti-Bcr antibody. The specific activity of Y360F was reduced by about sixfold. […] By using autophosphorylation of the Bcr protein as a measure of its relative amount, the reduction of Bcr's transkinase by the Y360F mutation was about sevenfold, confirming the results obtained by the Western blot method.

P210 BCR-ABL = biological target: T2, P210 BCR-ABL (Homo sapiens, UniProt P00519+P11274); assay: In vivo tyrosine phosphorylation of truncated Bcr proteins in COS-1 cells, anti-pTyr Western blot; format: cell-based; details: COS-1 cells coexpressing p210 Bcr-Abl
T2 construct: expressed in transfected cells; host or cells: COS-1
Text: FIG. 6A and FIG. 6B. In vivo tyrosine phosphorylation of truncated Bcr first exon sequences by Bcr-Abl. COS-1 vectors expressing Bcr150, Bcr221, and Bcr413 proteins, respectively, were expressed in COS-1 cells in the presence and absence of […].
The next tyrosine is at residue 177, and it is expected to be phosphorylated by Bcr-Abl (Puil et al., 1994). Bcr221 is tyrosine phosphorylated, but as with Bcr413, only in the presence of Bcr-Abl.
Transient transfections of COS1 cells were performed by the diethylaminoethyl (DEAE)-Dextran procedure. Transfection was initiated when COS1 cells were about 60%-80% confluent. After washing once with phosphate-buffered saline (PBS) and once with Tris-buffered Saline-0.02% Dextrose (TBS-D), cells were incubated with TBS-D containing 0.2 mg/ml DEAE-Dextran and 2 μg/ml of each added plasmid. The supernatant was then removed after 5-10 minutes when the cells started to round up and shrink.
After washing once with TBS-D and once with PBS, the cells were incubated in DMEM supplemented with 10% fetal calf serum and 100 μg/ml of chloroquine at 37° C. The chloroquine containing media was removed after 3-5 hours and the cells were washed three times with DMEM without fetal calf serum. The cells were then incubated in DMEM supplemented with 10% fetal calf serum at 37° C. for 2-3 days before harvesting.
COS-1 vectors expressing Bcr159, Bcr221, and Bcr413 proteins, respectively, were expressed in COS-1 cells in the presence and absence of p210 Bcr-Abl.

T1 sequence (P11274+P00519 fused): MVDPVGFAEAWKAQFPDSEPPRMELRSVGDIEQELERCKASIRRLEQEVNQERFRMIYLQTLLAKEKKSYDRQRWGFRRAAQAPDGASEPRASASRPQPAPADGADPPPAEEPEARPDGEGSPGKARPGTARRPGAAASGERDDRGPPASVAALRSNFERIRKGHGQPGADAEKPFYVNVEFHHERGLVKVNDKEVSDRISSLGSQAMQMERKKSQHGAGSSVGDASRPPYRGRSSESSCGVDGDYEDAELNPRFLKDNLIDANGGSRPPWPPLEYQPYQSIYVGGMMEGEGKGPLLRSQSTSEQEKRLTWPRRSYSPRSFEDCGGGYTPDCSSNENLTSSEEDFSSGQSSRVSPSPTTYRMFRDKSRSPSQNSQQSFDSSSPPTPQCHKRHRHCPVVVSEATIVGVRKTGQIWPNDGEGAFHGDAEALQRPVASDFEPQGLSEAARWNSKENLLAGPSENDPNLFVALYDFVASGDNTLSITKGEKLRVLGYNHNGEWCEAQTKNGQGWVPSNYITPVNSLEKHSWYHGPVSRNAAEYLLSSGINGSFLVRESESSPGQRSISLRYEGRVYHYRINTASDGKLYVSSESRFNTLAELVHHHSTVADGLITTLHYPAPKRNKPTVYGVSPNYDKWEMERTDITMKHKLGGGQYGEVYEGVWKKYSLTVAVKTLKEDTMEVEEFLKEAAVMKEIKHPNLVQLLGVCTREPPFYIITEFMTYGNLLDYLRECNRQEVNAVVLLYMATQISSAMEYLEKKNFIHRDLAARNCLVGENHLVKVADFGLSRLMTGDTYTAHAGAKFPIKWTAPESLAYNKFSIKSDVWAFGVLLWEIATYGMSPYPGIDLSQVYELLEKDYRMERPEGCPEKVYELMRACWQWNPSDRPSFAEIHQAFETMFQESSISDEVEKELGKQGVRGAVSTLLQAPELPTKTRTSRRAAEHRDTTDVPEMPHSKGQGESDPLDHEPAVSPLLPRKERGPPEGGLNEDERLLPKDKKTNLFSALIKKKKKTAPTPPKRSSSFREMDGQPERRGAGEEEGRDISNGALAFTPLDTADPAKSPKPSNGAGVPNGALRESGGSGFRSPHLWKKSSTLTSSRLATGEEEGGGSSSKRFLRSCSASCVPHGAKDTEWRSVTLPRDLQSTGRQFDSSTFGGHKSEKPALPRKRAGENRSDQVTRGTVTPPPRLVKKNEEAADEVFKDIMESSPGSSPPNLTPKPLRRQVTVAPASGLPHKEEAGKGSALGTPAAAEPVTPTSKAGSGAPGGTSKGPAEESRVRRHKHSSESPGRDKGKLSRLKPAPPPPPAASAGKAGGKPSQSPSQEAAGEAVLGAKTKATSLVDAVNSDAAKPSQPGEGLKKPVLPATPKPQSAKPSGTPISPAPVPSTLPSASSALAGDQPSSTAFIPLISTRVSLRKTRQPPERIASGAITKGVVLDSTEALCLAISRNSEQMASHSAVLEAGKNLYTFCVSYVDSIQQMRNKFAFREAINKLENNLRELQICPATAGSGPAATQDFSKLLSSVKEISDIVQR
T2 sequence (P11274+P00519 fused): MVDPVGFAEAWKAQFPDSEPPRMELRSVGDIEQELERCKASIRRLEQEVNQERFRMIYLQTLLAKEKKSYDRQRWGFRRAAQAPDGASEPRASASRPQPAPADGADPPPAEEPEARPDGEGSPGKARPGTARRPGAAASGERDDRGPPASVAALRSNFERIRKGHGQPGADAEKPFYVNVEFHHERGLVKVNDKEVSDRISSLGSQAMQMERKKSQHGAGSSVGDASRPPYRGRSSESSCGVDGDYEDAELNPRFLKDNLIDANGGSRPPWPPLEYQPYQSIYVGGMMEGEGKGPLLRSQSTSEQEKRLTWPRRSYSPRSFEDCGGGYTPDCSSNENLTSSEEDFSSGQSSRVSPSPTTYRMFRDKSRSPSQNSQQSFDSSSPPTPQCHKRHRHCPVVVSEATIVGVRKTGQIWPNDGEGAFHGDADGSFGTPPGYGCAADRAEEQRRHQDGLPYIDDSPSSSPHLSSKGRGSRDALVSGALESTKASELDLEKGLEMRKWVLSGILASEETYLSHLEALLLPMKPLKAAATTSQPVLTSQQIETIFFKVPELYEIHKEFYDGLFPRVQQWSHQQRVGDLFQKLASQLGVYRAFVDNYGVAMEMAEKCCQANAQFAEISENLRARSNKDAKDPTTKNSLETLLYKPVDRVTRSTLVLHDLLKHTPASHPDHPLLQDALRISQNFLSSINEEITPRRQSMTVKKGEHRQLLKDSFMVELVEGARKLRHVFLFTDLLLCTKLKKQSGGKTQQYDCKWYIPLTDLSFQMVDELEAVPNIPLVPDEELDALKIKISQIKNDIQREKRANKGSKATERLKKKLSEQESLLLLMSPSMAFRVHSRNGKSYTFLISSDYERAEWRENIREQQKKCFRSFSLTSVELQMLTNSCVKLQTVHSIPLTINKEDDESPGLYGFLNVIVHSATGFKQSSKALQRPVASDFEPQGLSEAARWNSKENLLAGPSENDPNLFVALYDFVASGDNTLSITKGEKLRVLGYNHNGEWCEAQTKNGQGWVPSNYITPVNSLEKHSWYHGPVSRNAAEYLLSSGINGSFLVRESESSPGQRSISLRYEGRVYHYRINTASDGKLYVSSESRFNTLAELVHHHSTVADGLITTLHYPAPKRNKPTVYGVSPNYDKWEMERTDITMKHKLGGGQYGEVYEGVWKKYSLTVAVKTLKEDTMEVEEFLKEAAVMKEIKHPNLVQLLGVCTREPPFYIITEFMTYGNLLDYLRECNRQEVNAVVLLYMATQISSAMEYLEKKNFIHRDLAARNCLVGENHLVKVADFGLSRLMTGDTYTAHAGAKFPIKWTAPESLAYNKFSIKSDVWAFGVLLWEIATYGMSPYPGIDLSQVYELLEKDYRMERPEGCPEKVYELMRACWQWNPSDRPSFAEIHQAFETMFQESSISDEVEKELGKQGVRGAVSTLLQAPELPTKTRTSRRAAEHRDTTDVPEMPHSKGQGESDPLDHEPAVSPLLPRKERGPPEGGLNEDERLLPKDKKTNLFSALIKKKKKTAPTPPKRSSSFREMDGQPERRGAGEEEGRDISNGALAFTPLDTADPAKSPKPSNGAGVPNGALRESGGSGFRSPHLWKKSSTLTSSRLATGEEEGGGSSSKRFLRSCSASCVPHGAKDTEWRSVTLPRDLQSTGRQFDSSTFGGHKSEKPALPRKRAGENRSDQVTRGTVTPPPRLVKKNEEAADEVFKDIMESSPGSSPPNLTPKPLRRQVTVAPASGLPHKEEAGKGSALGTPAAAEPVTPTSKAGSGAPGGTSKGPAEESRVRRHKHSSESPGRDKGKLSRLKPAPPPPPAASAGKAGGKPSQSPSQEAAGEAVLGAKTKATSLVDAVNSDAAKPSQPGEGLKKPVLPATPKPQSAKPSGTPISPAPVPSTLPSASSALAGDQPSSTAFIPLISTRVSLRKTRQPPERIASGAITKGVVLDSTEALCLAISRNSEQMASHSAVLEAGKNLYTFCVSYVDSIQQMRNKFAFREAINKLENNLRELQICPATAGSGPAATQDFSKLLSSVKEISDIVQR

## 350-SSRVpS*PSPTTYRMFRDK-366 (SSRV[pS]PSPTTYRMFRDK) [pS354 S17K]
P185 BCR-ABL
  Inhibition of Bcr-Abl tyrosine kinase activity (autophosphorylation): strongly inhibited

## unphosphorylated S17K: unphosphorylated form of Bcr peptide S17K, Bcr residues 350 to 366 (SSRVSPSPTTYRMFRDK)
P185 BCR-ABL
  Inhibition of Bcr-Abl tyrosine kinase activity (autophosphorylation): little affect

B1: Bcr Y283F: P160 BCR with tyrosine 283 to phenylalanine mutation (protein, UniProt P11274 1-1271, looked up, variant Y283F)
Breakpoint cluster region …: MVDPVGFAEAWKAQFPDSEPPRMELRSVGDIEQELERCKASIRRLEQEVNQERFRMIYLQTLLAKEKKSYDRQRWGFRRAAQAPDGASEPRASASRPQPAPADGADPPPAEEPEARPDGEGSPGKARPGTARRPGAAASGERDDRGPPASVAALRSNFERIRKGHGQPGADAEKPFYVNVEFHHERGLVKVNDKEVSDRISSLGSQAMQMERKKSQHGAGSSVGDASRPPYRGRSSESSCGVDGDYEDAELNPRFLKDNLIDANGGSRPPWPPLEYQPYQSIFVGGMMEGEGKGPLLRSQSTSEQEKRLTWPRRSYSPRSFEDCGGGYTPDCSSNENLTSSEEDFSSGQSSRVSPSPTTYRMFRDKSRSPSQNSQQSFDSSSPPTPQCHKRHRHCPVVVSEATIVGVRKTGQIWPNDGEGAFHGDADGSFGTPPGYGCAADRAEEQRRHQDGLPYIDDSPSSSPHLSSKGRGSRDALVSGALESTKASELDLEKGLEMRKWVLSGILASEETYLSHLEALLLPMKPLKAAATTSQPVLTSQQIETIFFKVPELYEIHKEFYDGLFPRVQQWSHQQRVGDLFQKLASQLGVYRAFVDNYGVAMEMAEKCCQANAQFAEISENLRARSNKDAKDPTTKNSLETLLYKPVDRVTRSTLVLHDLLKHTPASHPDHPLLQDALRISQNFLSSINEEITPRRQSMTVKKGEHRQLLKDSFMVELVEGARKLRHVFLFTDLLLCTKLKKQSGGKTQQYDCKWYIPLTDLSFQMVDELEAVPNIPLVPDEELDALKIKISQIKNDIQREKRANKGSKATERLKKKLSEQESLLLLMSPSMAFRVHSRNGKSYTFLISSDYERAEWRENIREQQKKCFRSFSLTSVELQMLTNSCVKLQTVHSIPLTINKEDDESPGLYGFLNVIVHSATGFKQSSNLYCTLEVDSFGYFVNKAKTRVYRDTAEPNWNEEFEIELEGSQTLRILCYEKCYNKTKIPKEDGESTDRLMGKGQVQLDPQALQDRDWQRTVIAMNGIEVKLSVKFNSREFSLKRMPSRKQTGVFGVKIAVVTKRERSKVPYIVRQCVEEIERRGMEEVGIYRVSGVATDIQALKAAFDVNNKDVSVMMSEMDVNAIAGTLKLYFRELPEPLFTDEFYPNFAEGIALSDPVAKESCMLNLLLSLPEANLLTFLFLLDHLKRVAEKEAVNKMSLHNLATVFGPTLLRPSEKESKLPANPSQPITMTDSWSLEVMSQVQVLLYFLQLEAIPAPDSKRQSILFSTEV
casein
  Ability to transphosphorylate casein compared with wild-type Bcr: not significantly altered

B2: Bcr fragment (64-413): Bcr sequences from amino acid 64 to 413 with both A and B serine-rich boxes, expressed in COS-1 cells (protein)
chain: AKEKKSYDRQRWGFRRAAQAPDGASEPRASASRPQPAPADGADPPPAEEPEARPDGEGSPGKARPGTARRPGAAASGERDDRGPPASVAALRSNFERIRKGHGQPGADAEKPFYVNVEFHHERGLVKVNDKEVSDRISSLGSQAMQMERKKSQHGAGSSVGDASRPPYRGRSSESSCGVDGDYEDAELNPRFLKDNLIDANGGSRPPWPPLEYQPYQSIYVGGMMEGEGKGPLLRSQSTSEQEKRLTWPRRSYSPRSFEDCGGGYTPDCSSNENLTSSEEDFSSGQSSRVSPSPTTYRMFRDKSRSPSQNSQQSFDSSSPPTPQCHKRHRHCPVVVSEATIVGVRKTGQI
P185 BCR-ABL; immune complexes on protein A Sepharose beads added to P185 BCR-ABL immunoprecipitates from SUP B15
  Inhibition of Bcr-Abl tyrosine kinase activity (P185 autokinase): potent inhibitor
P185 BCR-ABL; immunoprecipitate boiled for a few minutes prior to addition to the kinase assay
  Inhibitory activity towards Bcr-Abl kinase after boiling: strongly decreased

B3: Bcr221: amino acids 1-221 of Bcr, N-terminal fragment (protein)
chain: MVDPVGFAEAWKAQFPDSEPPRMELRSVGDIEQELERCKASIRRLEQEVNQERFRMIYLQTLLAKEKKSYDRQRWGFRRAAQAPDGASEPRASASRPQPAPADGADPPPAEEPEARPDGEGSPGKARPGTARRPGAAASGERDDRGPPASVAALRSNFERIRKGHGQPGADAEKPFYVNVEFHHERGLVKVNDKEVSDRISSLGSQAMQMERKKSQHGAGS
P210 BCR-ABL
  Tyrosine phosphorylation by Bcr-Abl in cells: induces tyrosine phosphorylation

B4: Bcr413: amino acids 1-413 of Bcr, N-terminal fragment (protein)
chain: MVDPVGFAEAWKAQFPDSEPPRMELRSVGDIEQELERCKASIRRLEQEVNQERFRMIYLQTLLAKEKKSYDRQRWGFRRAAQAPDGASEPRASASRPQPAPADGADPPPAEEPEARPDGEGSPGKARPGTARRPGAAASGERDDRGPPASVAALRSNFERIRKGHGQPGADAEKPFYVNVEFHHERGLVKVNDKEVSDRISSLGSQAMQMERKKSQHGAGSSVGDASRPPYRGRSSESSCGVDGDYEDAELNPRFLKDNLIDANGGSRPPWPPLEYQPYQSIYVGGMMEGEGKGPLLRSQSTSEQEKRLTWPRRSYSPRSFEDCGGGYTPDCSSNENLTSSEEDFSSGQSSRVSPSPTTYRMFRDKSRSPSQNSQQSFDSSSPPTPQCHKRHRHCPVVVSEATIVGVRKTGQI
P210 BCR-ABL
  Tyrosine phosphorylation by Bcr-Abl in cells: induces tyrosine phosphorylation
